Measured values: patent CN112980851A

Target: CD20 (UniProt P11836)
Assay: cell-based or functional assay

Chain of UniProt P11836 (P11836 whole entry): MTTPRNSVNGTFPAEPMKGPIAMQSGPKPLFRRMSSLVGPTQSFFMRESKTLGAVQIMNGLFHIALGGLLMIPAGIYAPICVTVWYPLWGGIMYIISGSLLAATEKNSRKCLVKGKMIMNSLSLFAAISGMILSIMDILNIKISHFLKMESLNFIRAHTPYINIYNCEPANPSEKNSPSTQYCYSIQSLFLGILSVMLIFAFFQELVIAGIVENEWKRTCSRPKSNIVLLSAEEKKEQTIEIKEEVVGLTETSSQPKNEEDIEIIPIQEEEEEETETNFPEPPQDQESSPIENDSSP

Rituximab (antibody) gave an ADCC on Raji cells with NK92MI-CD16a effector cells (LDH release), EC50(ng/mL) of 0.607 ng/mL and a CDC on Raji cells with human serum complement (LDH release), EC50(ng/mL) of 210 ng/mL.
